Assay results reported in IntAct's records for PubMed 22939624.

B1: non-specific protein-tyrosine kinase (Homo sapiens), A9UEZ6 (parent)
chain: MVDPVGFAEAWKAQFPDSEPPRMELRSVGDIEQELERCKASIRRLEQEVNQERFRMIYLQTLLAKEKKSYDRQRWGFRRAAQAPDGASEPRASASRPQPAPADGADPPPAEEPEARPDGEGSPGKARPGTARRPGAAASGERDDRGPPASVAALRSNFERIRKGHGQPGADAEKPFYVNVEFHHERGLVKVNDKEVSDRISSLGSQAMQMERKKSQHGAGSSVGDASRPPYRGRSSESSCGVDGDYEDAELNPRFLKDNLIDANGGSRPPWPPLEYQPYQSIYVGGMMEGEGKGPLLRSQSTSEQEKRLTWPRRSYSPRSFEDCGGGYTPDCSSNENLTSSEEDFSSGQSSRVSPSPTTYRMFRDKSRSPSQNSQQSFDSSSPPTPQCHKRHRHCPVVVSEATIVGVRKTGQIWPNDGEGAFHGDADGSFGTPPGYGCAADRAEEQRRHQDGLPYIDDSPSSSPHLSSKGRGSRDALVSGALESTKASELDLEKGLEMRKWVLSGILASEETYLSHLEALLLPMKPLKAAATTSQPVLTSQQIETIFFKVPELYEIHKEFYDGLFPRVQQWSHQQRVGDLFQKLASQLGVYRVLGYNHNGEWCEAQTKNGQGWVPSNYITPVNSLEKHSWYHGPVSRNAAEYLLSSGINGSFLVRESESSPGQRSISLRYEGRVYHYRINTASDGKLYVSSESRFNTLAELVHHHSTVADGLITTLHYPAPKRNKPTVYGVSPNYDKWEMERTDITMKHKLGGGQYGEVYEGVWKKYSLTVAVKTLKEDTMEVEEFLKEAAVMKEIKHPNLVQLLGVCTREPPFYIITEFMTYGNLLDYLRECNRQEVNAVVLLYMATQISSAMEYLEKKNFIHRDLAARNCLVGENHLVKVADFGLSRLMTGDTYTAHAGAKFPIKWTAPESLAYNKFSIKSDVWAFGVLLWEIATYGMSPYPGIDLSQVYELLEKDYRMERPEGCPEKVYELMRACWQWNPSDRPSFAEIHQAFETMFQESSISDEVEKELGKQGVRGAVSTLLQAPELPTKTRTSRRAAEHRDTTDVPEMPHSKGQGESDPLDHEPAVSPLLPRKERGPPEGGLNEDERLLPKDKKTNLFSALIKKKKKTAPTPPKRSSSFREMDGQPERRGAGEEEGRDISNGALAFTPLDTADPAKSPKPSNGAGVPNGALRESGGSGFRSPHLWKKSSTLTSSRLATGEEEGGGSSSKRFLRSCSASCVPHGAKDTEWRSVTLPRDLQSTGRQFDSSTFGGHKSEKPALPRKRAGENRSDQVTRGTVTPPPRLVKKNEEAADEVFKDIMESSPGSSPPNLTPKPLRRQVTVAPASGLPHKEEAGKGSALGTPAAAEPVTPTSKAGSGAPGGTSKGPAEESRVRRHKHSSESPGRDKGKLSRLKPAPPPPPAASAGKAGGKPSQSPSQEAAGEAVLGAKTKATSLVDAVNSDAAKPSQPGEGLKKPVLPATPKPQSAKPSGTPISPAPVPSTLPSASSALAGDQPSSTAFIPLISTRVSLRKTRQPPERIASGAITKGVVLDSTEALCLAISRNSEQMASHSAVLEAGKNLYTFCVSYVDSIQQMRNKFAFREAINKLENNLRELQICPATAGSGPAATQDFSKLLSSVKEISDIVQR

Variants of: B1
Details: with hs90b_human HSP90AB1, P08238
hs90b_human HSP90AB1, P08238, sequence (P08238 whole entry): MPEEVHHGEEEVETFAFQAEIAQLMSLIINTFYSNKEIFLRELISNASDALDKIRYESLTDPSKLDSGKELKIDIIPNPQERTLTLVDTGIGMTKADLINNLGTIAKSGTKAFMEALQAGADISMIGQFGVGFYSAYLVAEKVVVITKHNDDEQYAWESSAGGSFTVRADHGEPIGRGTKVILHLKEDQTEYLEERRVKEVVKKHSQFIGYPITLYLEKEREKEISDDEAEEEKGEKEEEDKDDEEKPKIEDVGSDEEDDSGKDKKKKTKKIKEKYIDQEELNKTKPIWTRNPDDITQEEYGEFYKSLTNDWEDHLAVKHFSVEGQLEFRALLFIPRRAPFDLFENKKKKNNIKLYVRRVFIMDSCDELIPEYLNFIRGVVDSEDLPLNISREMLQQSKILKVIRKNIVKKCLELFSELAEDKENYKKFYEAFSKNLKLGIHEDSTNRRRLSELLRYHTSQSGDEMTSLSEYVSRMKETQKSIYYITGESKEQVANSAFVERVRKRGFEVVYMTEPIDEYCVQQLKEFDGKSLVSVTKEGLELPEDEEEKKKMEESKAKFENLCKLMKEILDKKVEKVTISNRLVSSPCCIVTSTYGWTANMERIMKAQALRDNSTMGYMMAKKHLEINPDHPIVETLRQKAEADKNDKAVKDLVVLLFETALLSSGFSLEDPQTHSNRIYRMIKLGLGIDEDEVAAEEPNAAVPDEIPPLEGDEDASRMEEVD

| Variant | effect of a mutation on the interaction |
| --- | --- |
| M975I | increasing interaction |
| M747I | decreasing interaction |
